Results from US20210047398A1, “ASPROSIN, A FAST-INDUCED GLUCOGENIC PROTEIN HORMONE” (Baylor College of Medicine, priority 2016, published 2021).

How the values were obtained:
[1] = SPECT scans and gamma counting after intravenous I125-asprosin; type: in vivo, mice; details: 15 minutes after intravenous injection of 150 μCi
Description: FIGS. 22A-22E: Asprosin traffics to the liver in vivo and binds the hepatocyte surface with high affinity in a saturable and competitive manner. (FIG. 22A) SPECT scans were performed 15 minutes after intravenous injection with 150 μCi I125-asprosin, boiled I125-asprosin, or free I125 in live, anesthetized mice previously injected with bismuth as a hepatic contrast agent. 3 representative images are shown in axial and coronal planes. (FIG. 22B) Liver asprosin accumulation was measured as liver photon intensity from mice in (FIG. 22A). (FIG. 22C) Tissue radioactivity (normalized to tissue weight) was measured using a γ-counter after sacrificing mice from (FIG. 22A), 45 minutes following injection (n=4 mice). (FIG. 22D) Sandwich ELISA was used to measure plasma His tag (recombinant asprosin contains an N-terminal His tag) in WT mice before injection and 15, 30, 60 and 120 minutes after injection with 30 μg recombinant asprosin. The time taken for peak signal to fall to half-maximal level is indicated by the arrow. […] Specific binding (shown in red) was calculated as the difference between the two curves. Data are represented as the mean±SEM.
Recombinant asprosin was labeled with iodine-125 (I^125) and injected intravenously in mice, followed by single-photon emission computerized tomography (SPECT) scans to identify sites of accumulation. […]

[2] = test system: AgRP neurons; experiment: Whole-cell patch clamp recordings on AgRP neurons; type: cell-based, mice; details: for effect of pre-treating on asprosin-mediated AgRP neuron activation (firing frequency and resting membrane potential): 100 μM NKY80, 50 μM suramin, 20 μM NF449, 50 μM PTX, 1 μM PKI, 100 μM [D-Lys3]-GHRP-6
Description: Electrophysiology—Whole-cell patch clamp recordings were performed on identified AgRP neurons or POMC neurons in the brain slices containing the arcuate nucleus of the hypothalamus (ARH). In particular, to identify AgRP neurons, the inventors crossed Rosa26-tdTOMATO allele onto the regular AgRP-Cre mice (Tong et al., 2008) to generate AgRP-Cre/Rosa26-tdTOMATO mice, which express TOMATO selectively in AgRP/NPY neurons. In some studies, the inventors crossed NPY-GFP mice (Pinto et al., 2004) with NPS mice to generate NPY-GFP mice with or without the NPS mutation, and GFP-labelled neurons in the arcuate nucleus were recorded. In order to record POMC neurons, the inventors crossed Rosa26-tdTOMATO allele onto the POMC-CreERT2 mice (Berglund et al., 2013) to generate POMC-CreERT2/Rosa26-tdTOMATO mice, which express TOMATO selectively in mature POMC neurons upon tamoxifen induction (0.2 mg/g, i.p. 6 weeks of age). In some studies, the inventors also crossed the AgRP-DTR allele onto POMC-GFP mice, and these mice received DT or saline injections (described above) to generate mice with or without AgRP neurons ablated.
Six to twelve-week old mice were deeply anesthetized with isoflurane and transcardially perfused with a modified ice-cold sucrose-based cutting solution (pH 7.3) containing 10 mM NaCl, 25 mM NaHCO3, 195 mM Sucrose, 5 mM Glucose, 2.5 mM KCl, 1.25 mM NaH2PO4, 2 mM Na-Pyruvate, 0.5 mM CaCl2, and 7 mM MgCl2, bubbled continuously with 95% O2 and 5% CO2 (Ren et al., 2012). The mice were then decapitated, and the entire brain was removed and immediately submerged in the cutting solution. Slices (250 μm) were cut with a Microm HM 650V vibratome (Thermo Scientific). Three brain slices containing the arcuate nucleus were obtained for each animal (Bregma −2.06 mm to −1.46 mm; Interaural 1.74 mm to 2.34 mm), and recordings were made at levels throughout this brain region. The slices were recovered for 1 h at 34° C. and then maintained at room temperature in artificial cerebrospinal fluid (aCSF, pH 7.3) containing 126 mM NaCl, 2.5 mM KCl, 2.4 mM CaCl2, 1.2 mM NaH2PO4, 1.2 mM MgCl2, 11.1 mM glucose, and 21.4 mM NaHCO3) saturated with 95% O2 and 5% CO2 before recording.
Slices were transferred to a recording chamber and allowed to equilibrate for at least 10 min before recording. The slices were superfused at 34° C. in oxygenated aCSF at a flow rate of 1.8-2 ml/min. GFP or TOMATO-labeled neurons in the ARH were visualized using epifluorescence and IR-DIC imaging on an upright microscope (Eclipse FN-1, Nikon) equipped with a moveable stage (MP-285, Sutter Instrument). Patch pipettes with resistances of 3-5 MΩ were filled with intracellular solution (pH 7.3) containing 128 mM K-Gluconate, 10 mM KCl, 10 mM HEPES, 0.1 mM EGTA, 2 mM MgCl2, 0.05 mM Na-GTP and 0.05 mM Mg-ATP. Recordings were made using a MultiClamp 700B amplifier (Axon Instrument), sampled using Digidata 1440A and analyzed offline with pClamp 10.3 software (Axon Instruments). Series resistance was monitored during the recording, and the values were generally <10 MΩ and were not compensated. The liquid junction potential was +12.5 mV, and was corrected after the experiment. Data were excluded if the series resistance increased dramatically during the experiment or without overshoot for action potential. Currents were amplified, filtered at 1 kHz, and digitized at 20 kHz. Current clamp was engaged to test neural firing frequency and resting membrane potential (RM) at the baseline and puff delivered recombinant Asprosin (500 ms at various concentrations indicated in the figures). For the asprosin antibody pre-incubation experiment, asprosin and anti-asprosin mAB or IgG were gently mixed at a 1:100 ratio, and then kept on ice for one hour before recording. After AgRP or POMC neuron response to asprosin alone was confirmed, the mixture of recombinant asprosin and anti-asprosin mAB or IgG was perfused to treat the AgRP or POMC neurons for 4 minutes. […]

[3] = test system: mouse primary hepatocytes
Description: Cell Culture. Primary mouse hepatocytes were isolated from 8- to 12-week-old WT mice using standard methodology. […] The cells were treated with 50 nM recombinant asprosin or GFP for 10 minutes for cAMP and PKA assays and for 2 hours for the in vitro glucose production assay. Cells were pretreated with various inhibitors for 1 hour prior to treatment with asprosin, GFP, Glucagon or Epinephrine. cAMP was measured from cell lysates using the cAMP direct immunoassay kit from Cell Biolabs. PKA activity was measured from cell lysates using the PKA kinase activity kit from Enzo Lifesciences, Inc. Media glucose content was measured using the Glucose Colorimetric Assay Kit from Biovision. Results were normalized to protein content.

[4] = Food intake, energy expenditure and body composition after asprosin gain-of-function; type: in vivo, mice; details: single subcutaneous dose, C57Bl/6 mice, vs GFP
Description: Mouse food intake and energy expenditure—Food intake and energy expenditure were measured using the CLAMS System (Comprehensive Lab Animal Monitoring System, Columbus Instruments). Animals were acclimatized in the recording chambers for 48-72 hours, and measurements were taken subsequently for 24 hours during the light cycle and dark cycle. Mice received food and water ad libitum, or after an overnight fast where indicated. Oxygen consumption and food intake were recorded.
As previously described (Yan et al., 2016), male mice were anesthetized with inhaled isoflurane and stainless steel cannulas (Plastics One) were inserted into the lateral ventricles (0.34 mm caudal and 1 mm lateral from bregma; depth, 2.3 mm). […] These mice received 10 ng GFP ([…]) twice a day for 3 continuous days, and 10 ng asprosin (in […]) the last day. The BioDAQ food intake monitoring system (Research Diets, Inc) was used to monitor the food intake, and the food intake from the last GFP injection and asprosin were compared.
Mouse body composition—Body composition was analyzed using an ECHO-MRI system (Echo medical systems, Texas) or DEXA scans where indicated. Lean mass, fat mass, and overall body weight were calculated using the manufacturer-provided software.

[5] = Asprosin plasma half-life (biotinylated asprosin sandwich ELISA); type: in vivo; details: mammalian cell expressed asprosin, subcutaneous, mice, FIG. 50B
Description: Asprosin Plasma Half-life—Asprosin expressed in HEK293 was labeled with biotin using a EZ-Link Sulfo-NHS-Biotin kit (Thermo Scientific), and excess biotin was removed using a Zeba Spin desalting column (Thermo Scientific). Final protein concentration was estimated using a BCA assay (Thermo Scientific). Approximately 30 ug/mouse of labeled asprosin was injected subcutaneously into C57Bl/6 mice. Blood was drawn before injection (baseline), and 30, 60, 120, and 360 minutes after injection, as well as after 24 and 48 hours. Biotinylated asprosin was detected using a custom designed sandwich ELISA. A plate was coated with the anti-asprosin monoclonal antibody (capture antibody), total plasma asprosin was bound, and only biotinylated asprosin was detected using Streptavidin-HRP.

**Q.** Which “site of accumulation (SPECT, liver photon intensity)” value [1] does the source give for “I^125-Asprosin: Recombinant asprosin labeled with iodine-125” here?
**A.** trafficked primarily to the liver

**Q.** Which “effect of pre-treating on asprosin-mediated AgRP neuron activation (firing frequency and resting membrane potential)” value (“effect of pre-treating” for short) [2] does the source give for `O=C(Nc1cc(C(=O)Nc2ccc(S(=O)(=O)[O-])cc2S(=O)(=O)[O-])cc(C(=O)Nc2ccc(S(=O)(=O)[O-])cc2S(=O)(=O)[O-])c1)Nc1cc(C(=O)Nc2ccc(S(=O)(=O)[O-])cc2S(=O)(=O)[O-])cc(C(=O)Nc2ccc(S(=O)(=O)[O-])cc2S(=O)(=O)[O-])c1.[Na+].[Na+].[Na+].[Na+].[Na+].[Na+].[Na+].[Na+]` [NF449, reference compound] here?
**A.** completely prevented

**Q.** For [D-Lys3]-GHRP-6 [reference compound], which “effect of pre-treating” value [2] is on record?
**A.** no impact

**Q.** With `Nc1ncc2c(n1)CC(c1ccco1)CC2=O` (stereo not drawn) [NKY80, reference compound] as the molecule, how does the “effect of pre-treating” value [2] read?
**A.** completely prevented

**Q.** With `Cc1ccc(C(=O)Nc2ccc(S(=O)(=O)O)c3cc(S(=O)(=O)O)cc(S(=O)(=O)O)c23)cc1NC(=O)c1cccc(NC(=O)Nc2cccc(C(=O)Nc3cc(C(=O)Nc4ccc(S(=O)(=O)O)c5cc(S(=O)(=O)O)cc(S(=O)(=O)O)c45)ccc3C)c2)c1` [suramin, reference compound] as the molecule, how does the “effect of pre-treating” value [2] read?
**A.** completely prevented

**Q.** And the “effect on asprosin-mediated hepatocyte PKA activation” value [3]?
**A.** blocked

**Q.** Which “effect of pre-treating” value [2] does the source give for PTX: Gαi inhibitor [reference compound] here?
**A.** no impact

B1: mammalian-generated asprosin: Human asprosin with C-terminal 6x His tag expressed in Expi293 mammalian cells, glycosylated (protein)
chain: STNETDASNIEDQSETEANVSLASWDVEKTAIFAFNISHVSNKVRILELLPALTTLTNHNRYLIESGNEDGFFKINQKEGISYLHFTKKKPVAGTYSLQISSTPLYKKKELNQLEDKYDKDYLSGELGDNLKMKIQVLLHHHHHHH
**Q.** Which “food intake over the next 24-hr” value [4] does the source give for B1 here?
**A.** greater food intake

**Q.** And the “dose-dependency of AgRP neuron activation (firing frequency, membrane potential)” value ([2]; 0.01-100 nM, intact slices)?
**A.** dose-dependent activation

**Q.** And the “EC50 for AgRP neuron activation” value ([2]; firing frequency and membrane potential)?
**A.** nanomolar to subnanomolar range

**Q.** What about the plasma half-life [5] of the same molecule?
**A.** ~2.42 h

**Q.** What about the plasma half-life ([5]; listed as Mammalian asprosin) of the same molecule?
**A.** approximately 145 minutes
